Measurements published in the nanobody polyreactivity screen of Harvey et al. (2022).

Assay: yeast display, Sf9 membrane polyspecificity reagent, FACS + sequencing; frameworks hold sequencing errors
In short: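 Genes from sorted yeast were amplified by colony PCR, read by MiSeq 2 × 250 sequencing and filtered on CDR length. These cells carried a synthetic nanobody library in Saccharomyces cerevisiae BJ5465 and were sorted by FACS into low and high (top ~1%) gates on anti-HA and streptavidin fluorescence. Polyreactivity is labelled according to the gate of origin.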

| Sequence | polyreactivity (PSR sort gate) |
| --- | --- |
| QFQLVESGGGLVQAGGSLRLSCAASGSTFDINDMGWYRQAPGKERELVAAITTSGASTYYADSVKGRFTISRDNAKNTVYLQMNSLKPEETAVSYCAADCLSYVWYVWYDYWGQGTKVTVSS | low polyreactivity |
| QFQLVESGGGLVQAGGSLRLSCAASGSTFEKNAMGWYRQAPGKERDLVDAISNGVSTYYADSVKGRFTISRDNAKNSVFLQMISLKPEDTAVYFCAADLFFGAETVYYDKFDYWGQGTKVTVSS | low polyreactivity |
| QFQLVESGGGLVQAGGSLRLSCAASGSTFGGNAMGWYRQAPGKERELVAAIDSGGGTNYADSVKGRFTISRDNAKNTVYLQMNSLKPEDSAVYYCNADWAVRSTQNSSSGHDYWGQGTQVTVSS | low polyreactivity |
| QFQLVESGGGLVQAGGSLRLSCAASGSTFGYYAMGWYSQAPGKERELVAAITSTGRTKYADSVKGRFTISRDNAKNSVYLQMNSLKPEDTAVYYCAADIWGQGTQVTVSS | high polyreactivity |
| QFQLVESGGGLVQAGGSLRLSCAASGSTFPHYTMGWYRQAPGKERELVAAIRRSAGSTYYADSVKGRFTISRDNAKNTVYLQMNSLKPEDTAVYYCNTRQRPPYLVKLNYWGQGTQVTVSS | high polyreactivity |
| QFQLVESGGGLVQAGGSLRLSCAASGSTFRGYVMGWYRQAPGKERELVAAITFSSGSTYYADSVKGRFTISRDNAKNTVYLQMNSLKPEDTAVYYCAAVGPYYRDYYYWGQGTQVTVSS | high polyreactivity |
| QFQLVESGGGLVQAGGSLRLSCAASGSTFWVYAMGWYRQAPGKERDLVAAITFRTTSTYYADSVKGRFTISRDTAKNSVSLQLKSLIPDDNAVYFCAATEYYATEYDYWGQCTQVTVSS | low polyreactivity |
| QFQLVESGGGLVQAGGSLRLSCAASGSTFYPNSMGWYRQAPGKEMELVAAISSGGSTSYADSVKGRFTISRDNAKNTVYLQMNSLKPEDTAVYYCNASSPGAVPVYDYDYWGQGTQVTVSS | low polyreactivity |
| QFQLVESGGGLVQAGGSLRLSCAASGYIFGRYAMGWYRQPPGKERELVAAISSTGDSTYYADSVKGRFTISRDYAKNTVYLQMNSQKPEDTAVYYCNAVVPRYSYGRYYYWGQGTQVTVSS | high polyreactivity |
| QFQLVESGGGLVQAGGSLRLSCAATGRTFYIYSMGWYRQAPGKERELVAAITSGGSTSYADSVKGRFTISRDNAKNTVYLQMNSLKPEDTAVYYCAADQYTYWFGYDYWGQGTQVTVSS | low polyreactivity |
| QFQLVESGGGLVQAGGSLRLSCAAYGFTFYAYTMGWYRQAPGKERELVAAIRTGSSTYYADSVKGRFTISRDNAKNTVYLQMNSMKPQDTAVYYCAAPRWRRPYRYDYWGQGTQVTVSS | high polyreactivity |
| QFQLVESGGGLVQAGGSLRLSSAASGSTFYYNAMGWYRQAPGKERELVAVITSGVSTYYADSVKGRFTISRDNAKNTVYLQMNSLKPVDTAVYYCAADLYRPYEYQLDYWGHGTQVTVSS | low polyreactivity |
| QFQLVESGGGLVQAGGSLRLSSAPSGIIFPYYAMGWYRQAPGKERELVAAISRTGSTYYADSVKGRFTISRDNAKNTVYLQMNRLNPEVTAVYYCAARTYYSQGTSSVSLQQYGYWGEGTQVTVSS | low polyreactivity |
| QFQLVESGGGLVQAGGSLRVSSAASGITLPYYAMGWYRQAPGKDRELVAGISSRGGSTYYADSVKGRFTISRDNAKNTVYLQMNSLKPEDTAVYYCAAKVASTRLGPAYGYWGQGTQVTVSS | high polyreactivity |
| QFQLVESGGGLVQARGSLRLSCAASGRIFSWYAMGWYRQAPGKETELVAGLNRNGGSTYYPDSVKGRFTISRDNAKNTVYLQMNSQKPEDTAVYYCAKGQYYYTGDYDYWGQGTQVTVSS | high polyreactivity |
| QFQLVESGGGLVQARGSLRLSCAASGSTFSQYAMGWYRQAPGKERELVAAITTSDGTTNYADSVKGRFTISRDNAKNTVFLQMNILQPEDTAVYYCNNEYFYYSFGYWGQGTQVTVSS | low polyreactivity |
| QFQLVESGGGVVQAGGSLRLSCAASGYTFYIYARGWYRQAPWKERELVAAISWTDGSTYYADSVKGRFTISRDNAKNTVYLQMNSLKPEDTAVYYCAKTSLYAGAKEYDYWGQGTQVTVSS | low polyreactivity |
| QFQLVESGGRLVQAGGSLRLSCAASGFTFNRYAMGSYRQAPGKGREFVAAITRRGGSTYYADSVKGRFTISRDNAKNTVYLQMNSLKPEDTAVYYCNVKPSARGSPLYDYWGQGTQVTVSS | high polyreactivity |
| QFQLVESGRGLVQAGGSLRLSCASSGSTQKYAMGWYRQAPRKERELVAAIRRTGGSTYYADSVKGRFKISRDNAKNTVYLQMNSLKPEDTAVYYCAAYIWVAESYDWGQGTQVTVSS | low polyreactivity |
| QFQLVESRGGLDQAVGSLRLSCAASGFIFAGYVMGLYRQAPGQERELVAGISNSGDNTHYADSVKGRFTISRDNAKNTDYLQMNSLKPEDTAVYYCAAVEQHLAGDDFYSYYYWGQGTQVTLSS | low polyreactivity |
| QFQLVETGGGLVQAGGSLRLSCAASGITFVRYAMGWYSQAPGKERELVAGISRGGSTNYADSVKGRFTISRDNAKNTVYLQMNSLKPEDTAVYYCNRANSFFDTHTLQFYYWGQGTQVTVSS | high polyreactivity |
| QGHLVESGGGLVQAGGSRRLSCAASGRIFSPYALGWSRQGPGKERELVAAISSDDGITYYADSVKRRFTISRDNAKNTVYFQMNSLKPEDTAVYYCAADSGTRPAGDYWGQGTQVTVSS | low polyreactivity |

| Sequence | polyreactivity (PSR sort gate) |
| --- | --- |
| QGQHAESGGGLVQAGGSLRLTCAASGFTFVYYPMGWYRQATGKERELVAAISGRGGSTYYADSVKGRFTISRDNAKNTVFLQMNSMKPEDTAVYYCAADAYESGNWEANGYWGQGTQVSVSS | low polyreactivity |
| QGQHVESGGGLVQAGGSLPLSCAASGFIFNLYAMGWSRQAPGKERELVAAISSGGGTSYADSVKGRFTISRDNAKNTVYLQMNTLKPEDTADYYCAARAWYRVSAYDYWGQGTQVTVSS | high polyreactivity |
| QGQHVESGGGLVQAGGSLRLSCAASGNILASNGMGWYRQAPGKERELVAAITFSGDTTYYADSVKGRFTISRDNAKNTVYLQMNSLKPEDTAVYYCNDGSFIVNGGYDGDYWGQGTQVTLSS | low polyreactivity |
| QGQLEESGGGLVQAGGSLRLSCAASGFTFYDNAMGWYRQAPGKERELVAAISWSGGSTYADSVKGRFTISRDNAKNTVYLLMNSLKPEDTAVYYCNADAWLASGYRYDYWGQGTQVTVSA | low polyreactivity |
| QGQLGESGGGLVQAGGSLRLSCAATGFTSYVYAMGWYRQAPGKERELVAAISLRTASTYYADSVKGRFTISRDNAKNTVYLQMTSLKPEDTAVYDCALGRETYRYAYRLNYWGQGTQVTLSS | high polyreactivity |
| QGQLVESCGCLVQAGGSLRLSCAASGSTFVVYDMGWYRQAPGKERELVAAITWSGGSTYYADSVKGRFTISRDNAKNTVYLQMNSLKPEDTAVYYCNKVTWHQGHDYWGQGTQVTVSS | low polyreactivity |
| QGQLVESGGCLVQAGGSLRLSCAASGSIFSENTMGWYRQAPGKKRELVADITSGGSTNYADSVKGRFTSSRDNAKYTVYLQMNSLIPEDTEVYYCAADYNGEYDYWGQGTLVTVSS | low polyreactivity |
| QGQLVESGGGFVQEGGSLRLSCAASRSIFRLYAMGWYRQAPGKEREFVARLRWRGGSTNYADSVKGRFTISRDNAKKTVYLQMNSLKPEDTAVYYCNARGRSGGGRYDYWGQGTQVTVSS | high polyreactivity |
| QGQLVESGGGLDQAGGSLRLSCAASGSIFHGNAMGWYRQAPGKERELVAVISDGGYTDYADSVKGRFTISRDNAKNTVYLQMNSLKPEDTAGYYCNADYDTQYFYRNPIYYLSGYDYRGQGTQVTVSS | low polyreactivity |
| QGQLVESGGGLFQAGASLRLSCAASGITFYDNAMGLYRQAPGKERELVAGISYDGDSTYADSVKGRFTISRDNAKNTVYLQMNSLKPEDTAVYYCAALCPYDWLWAGDYWGQGTQVTVSS | low polyreactivity |
| QGQLVESGGGLFQAGGSLSLSCASSGRTITHNVMGWYRQAPGKEMELVAGISSTGGSTYYADSVKGRFTISRDNSKNTVYLQMNSLKPEDTAVYYCAKEYYDGYFPSFDYEYWGQGTQVTVSS | low polyreactivity |
| QGQLVESGGGLVQAGCSLRLSCAASGSTFRRYAMGWDRQAPGKERELVATINWSGGRTYYADSVKGRFTISRDNAKKTGSLQMNRLKPVDTAVYYCAKADYYGYHYYYWGQGTQVTVSS | high polyreactivity |
| QGQLVESGGGLVQAGGRLRLSCAASGFTFRHNAMGWYRQAPGKETELVAAISWSDGSTYADSVKGRFTISRDNAKNTVYLQMNSLKPEDTAVYYCNADYPSYRYFTGRDYWGQGTQVTVSS | low polyreactivity |
| QGQLVESGGGLVQAGGRLRLSCAASGSTLWRYAMGWYRQAPRKERELVAGISRGGGSTYYADSVKGRFTISRDNAKNTVYLQMYSLKPEDTGVYYCATPVNQVRGAFDYWGQGTQVSVSS | low polyreactivity |
| QGQLVESGGGLVQAGGSIRLSCAASGYIFRRYAMGWYRQAPGKEREFVATISRSGGSTYYADSVKGRFTISRDNAKNTVYLQMNSLKPEDTAVYYCNAGYGYGYPKYDYWGQCTQVTVSS | high polyreactivity |
| QGQLVESGGGLVQAGGSLLLSCAASGRTFYNYYTMGLYRQAPGKERELVAAISRSGSTNYADSVKGRFTISRDTAKNTVYLQMNSLKPEDTAVYYCARSYRSDGSRFGYWGQGTQVTVSS | low polyreactivity |
| QGQLVESGGGLVQAGGSLRFSCAASGSTFVWYAMGWYRQAPGKERELVAGINRSGGSRYYADSVKGRFTILRDNAKNTVYLQMNSLKPEDTAVYYCAARGKRFRNSRIAYDYWGKGTQVTVSS | high polyreactivity |
| QGQLVESGGGLVQAGGSLRLSCAAAGFTFGSYAMGWYRHAPGKERELFARISSDGSTNYADSVKGRFTISSDNAKNTVYLQMNSLKPEDTAVYYCNADRQYTCSLVFFSSDYDYWGLGTQVTVSS | low polyreactivity |
| QGQLVESGGGLVQAGGSLRLSCAASGFIFYKNAMGWYRQAPGKARELVAAITWSGGSTYYADSVKGRFTISRDNAKNTVYLQMNSLKPEDTAVYYCAAGVTWISWVWYDYWGQGTQVTVSS | low polyreactivity |
| QGQLVESGGGLVQAGGSLRLSCAASGFIYGFYGMGWYRQAPGKEREFVAAIDFIDGDTYYADSVKGRFTISRDNAKNTVYLQMNSLKPEDTAVYYCAAVGSFWQFDYWGQGTQVTVSS | low polyreactivity |
| QGQLVESGGGLVQAGGSLRLSCAASGFTFAGYARGWYRQAPGKERELVAAINRGGSTYYADSVKGRFTISRDNAKNTVYLQMNSLTPEDTAVYYCAARQEPGWYPDVWWEYDYWGQGTQVTVSS | low polyreactivity |
